The values that follow come from publication PMC9174195, “Structural insights into human brain–gut peptide cholecystokinin receptors” (Cell Discovery, 2022).

Targets include CCK2R R152A (human) (UniProt P32239); CCK2R I156A (human) (UniProt P32239); CCK2R L335A (human) (UniProt P32239); CCK2R Q166A (human) (UniProt P32239); CCK2R K324N (human) (UniProt P32239).
For test [1], the target named is T1, human CCK2R with 15-residue depletion at the C-terminus, N-terminal Flag-tag, C-terminal LgBiT and double MBP … (human, UniProt P32239 1-432).
T1 construct: human cholecystokinin receptor CCK2R, wild type, C-terminal 15 residues removed; also called CCK2 receptor; gastrin receptor; not shown: LgBiT, C-terminal, kept
T1 sequence (looked up): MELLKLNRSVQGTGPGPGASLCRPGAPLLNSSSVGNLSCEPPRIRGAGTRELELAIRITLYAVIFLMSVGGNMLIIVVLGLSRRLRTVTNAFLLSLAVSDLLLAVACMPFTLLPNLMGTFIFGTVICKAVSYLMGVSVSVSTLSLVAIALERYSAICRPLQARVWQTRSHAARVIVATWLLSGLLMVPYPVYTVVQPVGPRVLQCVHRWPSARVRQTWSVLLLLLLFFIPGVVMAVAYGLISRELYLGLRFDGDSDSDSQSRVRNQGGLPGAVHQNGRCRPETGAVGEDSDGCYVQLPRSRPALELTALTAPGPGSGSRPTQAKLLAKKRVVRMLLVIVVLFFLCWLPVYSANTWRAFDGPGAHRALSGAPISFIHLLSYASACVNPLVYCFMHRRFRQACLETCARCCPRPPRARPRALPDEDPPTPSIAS
Kind of test: cryo-EM structure; gastrin-17–CCK2R–Gq–scFv16 complex; CCK2R, GqiN, Gβγ-peptide and Ric-8A co-expressed in Sf9, ligand and apyrase added, complex purified on MBP resin and Superdex 200 (20 mM HEPES pH 7.5, 100 mM NaCl); 13 mg/mL on the grid; 3.1 Å. As to conditions: both partners purified.

Square brackets hold non-standard residues; d marks the D form. Ends that are not written are not given here. sY = N[C@@H](Cc1ccc(OS(=O)(=O)O)cc1)C(=O)O

In the case of “Gαq with the 29 N-terminal amino acids replaced by the corresponding sequence of Gαi1 (GqiN) (from UniProt P50148 30-359)”, in the test with CCK2R R152A (human), the efficacy of G protein signaling against the wild type, CCK-8-induced Gαq–Gγ dissociation (NanoBiT) assay (% of the wild-type) came to 30. For the same molecule, the potency of G protein signaling against the wild type, CCK-8-induced Gαq–Gγ dissociation (NanoBiT) assay with CCK2R R152A (human) is above 3 fold. For the same molecule, the CCK-8 efficacy, CCK-8-induced Gαq–Gγ dissociation (NanoBiT) assay (% reduction of efficacy) in the test with CCK2R I156A (human), with CCK2R L335A (human) and with CCK2R Q166A (human) was 50 throughout.

Turning to “dominant-negative human Gαs (DNGαs) (from UniProt P63092 1-394) (natural protein)”, the coupling potency with Gs against wild-type CCK2R, CCK-8-induced cAMP accumulation (Fig. 7d) with CCK2R K324N (human) was above 3 fold.

B1: sulfated gastrin-17 (peptide, UniProt P01350 76-92, looked up)
peptide: QGPWLEEEEEA[sY]GWMDF
modifications: not fully specified (residue 1, C-terminus)
notes: gastrin-17, cut product of the gastrin precursor
For B1, the binding result in test [1] was “binds”.
